Each block holds one molecule with its values, some of them ahead of it.
Key:
[1] = target: human Trypsin (Sigma) (human) (UniProt P07477); experiment: cell-based or functional assay
[2] = target: AS-SPIK (Abnormal Secreted serine protease inhibitor Kazal), purified or partially purified from the medium of S2-3 cells (human) (UniProt P00995); experiment: cell-based or functional assay

inhibition of trypsin digestion of 1 uM BML (Boc-Gln-Ala-Arg-AMC) after 60 minutes, 3 nM AS-SPIK and 2 ng/ml trypsin [1]: 70%
Molecule: AS-SPIK (Abnormal Secreted serine protease inhibitor Kazal), purified or partially purified from the medium of S2-3 cells (from UniProt P00995 24-79)

restoration of Trypsin activity (inhibition of AS-SPIK activity) at 60 minutes, 1 ug/ml IM-CA22 pre-incubated with 3 nM AS-SPIK [2]: > 60%
B1: monoclonal antibody IM-CA22 (antibody, V domains shown)
VH: QIQLQQSGPELVKPGTSVKLSCKASGYTFTDYYINWVKQRPGQGLEWIGWIYPGSGNPIYNENFKDKATLTVDTSSTTAYLQLSSLTSEDSAVYFCAREWGCAMDSWGQGTSVTVSS
VL: DIVMTQSPSSLSVSTGEKVTMSCKSSQSLLNSGNQKNYLAWYQQKPGQSPKLLIYGASTRESGVPDRFTGSGSGTEFTLTISSVQAEDLAVYYCQSDYSHPYTFGGGTKLEIK

Source: patent US20210253734A1
